In IntAct's records for PubMed 31515488:

B1: 26S proteasome non-ATPase regulatory subunit 9 (Homo sapiens), O00233 (parent)
chain: MSDEEARQSGGSSQAGVVTVSDVQELMRRKEEIEAQIKANYDVLESQKGIGMNEPLVDCEGYPRSDVDLYQVRTARHNIICLQNDHKAVMKQVEEALHQLHARDKEKQARDMAEAHKEAMSRKLGQSESQGPPRAFAKVNSISPGSPASIAGLQVDDEIVEFGSVNTQNFQSLHNIGSVVQHSEGKPLNVTVIRRGEKHQLRLVPTRWAGKGLLGCNIIPLQR
B2: Isoform 1 of Destrin (Homo sapiens), P60981-1 (parent)
chain: MASGVQVADEVCRIFYDMKVRKCSTPEEIKKRKKAVIFCLSADKKCIIVEEGKEILVGDVGVTITDPFKHFVGMLPEKDCRYALYDASFETKESRKEELMFFLWAPELAPLKSKMIYASSKDAIKKKFQGIKHECQANGPEDLNRACIAEKLGGSLIVAFEGCPV
B3: Peroxisomal bifunctional enzyme (Homo sapiens), Q08426 (parent)
chain: MAEYTRLHNALALIRLRNPPVNAISTTLLRDIKEGLQKAVIDHTIKAIVICGAEGKFSAGADIRGFSAPRTFGLTLGHVVDEIQRNEKPVVAAIQGMAFGGGLELALGCHYRIAHAEAQVGLPEVTLGLLPGARGTQLLPRLTGVPAALDLITSGRRILADEALKLGILDKVVNSDPVEEAIRFAQRVSDQPLESRRLCNKPIQSLPNMDSIFSEALLKMRRQHPGCLAQEACVRAVQAAVQYPYEVGIKKEEELFLYLLQSGQARALQYAFFAERKANKWSTPSGASWKTASARPVSSVGVVGLGTMGRGIVISFARARIPVIAVDSDKNQLATANKMITSVLEKEASKMQQSGHPWSGPKPRLTSSVKELGGVDLVIEAVFEEMSLKKQVFAELSAVCKPEAFLCTNTSALDVDEIASSTDRPHLVIGTHFFSPAHVMKLLEVIPSQYSSPTTIATVMNLSKKIKKIGVVVGNCFGFVGNRMLNPYYNQAYFLLEEGSKPEEVDQVLEEFGFKMGPFRVSDLAGLDVGWKSRKGQGLTGPTLLPGTPARKRGNRRYCPIPDVLCELGRFGQKTGKGWYQYDKPLGRIHKPDPWLSKFLSRYRKTHHIEPRTISQDEILERCLYSLINEAFRILGEGIAASPEHIDVVYLHGYGWPRHKGGPMFYASTVGLPTVLEKLQKYYRQNPDIPQLEPSDYLKKLASQGNPPLKEWQSLAGSPSSKL
partner: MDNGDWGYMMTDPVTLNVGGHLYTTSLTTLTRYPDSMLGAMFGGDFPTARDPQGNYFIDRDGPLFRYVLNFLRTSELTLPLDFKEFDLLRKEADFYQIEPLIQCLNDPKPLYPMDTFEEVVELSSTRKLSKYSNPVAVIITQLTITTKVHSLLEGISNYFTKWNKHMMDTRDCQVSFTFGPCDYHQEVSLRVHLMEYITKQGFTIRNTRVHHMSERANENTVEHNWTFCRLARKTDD
B4: Golgin-45 (Homo sapiens), Q9H2G9 (parent)
chain: MTTKNLETKVTVTSSPIRGAGDGMETEEPPKSVEVTSGVQSRKHHSLQSPWKKAVPSESPGVLQLGKMLTEKAMEVKAVRILVPKAAITHDIPNKNTKVKSLGHHKGEFLGQSEGVIEPNKELSEVKNVLEKLKNSERRLLQDKEGLSNQLRVQTEVNRELKKLLVASVGDDLQYHFERLAREKNQLILENEALGRNTAQLSEQLERMSIQCDVWRSKFLASRVMADELTNSRAALQRQNRDAHGAIQDLLSEREQFRQEMIATQKLLEELLVSLQWGREQTYSPSVQPHSTAELALTNHKLAKAVNSHLLGNVGINNQKKIPSTVEFCSTPAEKMAETVLRILDPVTCKESSPDNPFFESSPTTLLATKKNIGRFHPYTRYENITFNCCNHCRGELIAL
partner: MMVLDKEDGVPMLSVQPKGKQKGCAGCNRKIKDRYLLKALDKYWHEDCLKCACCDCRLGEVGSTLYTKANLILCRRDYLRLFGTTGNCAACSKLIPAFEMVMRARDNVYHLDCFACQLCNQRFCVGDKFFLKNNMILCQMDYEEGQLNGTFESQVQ
B5: Cdc42 effector protein 4 (Homo sapiens), Q9H3Q1 (parent)
chain: MPILKQLVSSSVHSKRRSRADLTAEMISAPLGDFRHTMHVGRAGDAFGDTSFLNSKAGEPDGESLDEQPSSSSSKRSLLSRKFRGSKRSQSVTRGEREQRDMLGSLRDSALFVKNAMSLPQLNEKEAAEKGTSKLPKSLSSSPVKKANDGEGGDEEAGTEEAVPRRNGAAGPHSPDPLLDEQAFGDLTDLPVVPKATYGLKHAESIMSFHIDLGPSMLGDVLSIMDKEEWDPEEGEGGYHGDEGAAGTITQAPPYAVAAPPLARQEGKAGPDLPSLPSHALEDEGWAAAAPSPGSARSMGSHTTRDSSSLSSCTSGILEERSPAFRGPDRARAAVSRQPDKEFSFMDEEEEDEIRV
B6: Notch homolog 2 N-terminal-like protein A (Homo sapiens), Q7Z3S9 (parent)
chain: MCVTYHNGTGYCKCPEGFLGEYCQHRDPCEKNRCQNGGTCVAQAMLGKATCRCASGFTGEDCQYSTSHPCFVSRPCLNGGTCHMLSRDTYECTCQVGFTGKECQWTDACLSHPCANGSTCTTVANQFSCKCLTGFTGQKCETDVNECDIPGHCQHGGTCLNLPGSYQCQCLQGFTGQYCDSLYVPCAPSPCVNGGTCRQTGDFTFECNCLPETVRRGTELWERDREVWNGKEHDEN
partner: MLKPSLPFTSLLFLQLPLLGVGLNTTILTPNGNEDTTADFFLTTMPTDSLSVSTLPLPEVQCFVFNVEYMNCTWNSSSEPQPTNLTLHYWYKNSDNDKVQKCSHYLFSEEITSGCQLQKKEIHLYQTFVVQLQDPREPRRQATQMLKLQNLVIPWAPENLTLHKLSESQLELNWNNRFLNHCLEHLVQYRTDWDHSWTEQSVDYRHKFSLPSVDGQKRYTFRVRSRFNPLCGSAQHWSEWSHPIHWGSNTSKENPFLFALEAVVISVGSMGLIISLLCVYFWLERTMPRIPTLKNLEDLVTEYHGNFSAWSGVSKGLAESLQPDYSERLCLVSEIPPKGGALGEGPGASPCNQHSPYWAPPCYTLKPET
B7: Coiled-coil domain-containing protein 172 (Homo sapiens), P0C7W6 (parent)
chain: MSLESLFQHIIFTEHQAEESRRLMREVRSEITRCREKIKKATEELNEEKIKLESKVQQFFEKSFFLQLLKAHENALEKQYSEITNHRNMLLQTFEAIKKQMIEEEDKFIKEITDFNNDYEITKKRELLMKENVKIEISDLENQANMLKSEMKSMEHDSSQLNELQKQKSELIQELFTLQRKLKVFEDEENESICTTKYLEAEKIKISEKPQNDTECLRLKKELELYKEDDMESVYEALQTEIEFLELTLAQKDLQESK
partner: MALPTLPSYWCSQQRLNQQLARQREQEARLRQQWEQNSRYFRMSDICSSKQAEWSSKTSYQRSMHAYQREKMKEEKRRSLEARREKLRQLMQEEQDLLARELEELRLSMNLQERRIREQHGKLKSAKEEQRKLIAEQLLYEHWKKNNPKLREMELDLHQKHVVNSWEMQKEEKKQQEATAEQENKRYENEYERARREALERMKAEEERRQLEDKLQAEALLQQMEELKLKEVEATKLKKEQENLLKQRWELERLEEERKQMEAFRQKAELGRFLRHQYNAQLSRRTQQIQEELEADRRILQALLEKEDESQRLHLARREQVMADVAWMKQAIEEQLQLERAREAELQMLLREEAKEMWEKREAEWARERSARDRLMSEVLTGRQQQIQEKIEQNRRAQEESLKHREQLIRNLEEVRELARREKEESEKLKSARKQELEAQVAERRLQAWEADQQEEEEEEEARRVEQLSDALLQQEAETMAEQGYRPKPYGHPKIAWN
B8: Protein BANP (Homo sapiens), Q8N9N5 (parent)
chain: MMSEHDLADVVQIAVEDLSPDHPVVLENHVVTDEDEPALKRQRLEINCQDPSIKTICLRLDSIEAKLQALEATCKSLEEKLDLVTNKQHSPIQVPMVAGSPLGATQTCNKVRCVVPQTTVILNNDRQNAIVAKMEDPLSNRAPDSLENVISNAVPGRRQNTIVVKVPGQEDSHHEDGESGSEASDSVSSCGQAGSQSIGSNVTLITLNSEEDYPNGTWLGDENNPEMRVRCAIIPSDMLHISTNCRTAEKMALTLLDYLFHREVQAVSNLSGQGKHGKKQLDPLTIYGIRCHLFYKFGITESDWYRIKQSIDSKCRTAWRRKQRGQSLAVKSFSRRTPNSSSYCPSEPMMSTPPPASELPQPQPQPQALHYALANAQQVQIHQIGEDGQVQVGHLHIAQVPQGEQVQITQDSEGNLQIHHVGQDGQLLEATRIPCLLAPSVFKASSGQVLQGAQLIAVASSDPAAAGVDGSPLQGSDIQVQYVQLAPVSDHTAGAQTAEALQPTLQPEMQLEHGAIQIQ
partner: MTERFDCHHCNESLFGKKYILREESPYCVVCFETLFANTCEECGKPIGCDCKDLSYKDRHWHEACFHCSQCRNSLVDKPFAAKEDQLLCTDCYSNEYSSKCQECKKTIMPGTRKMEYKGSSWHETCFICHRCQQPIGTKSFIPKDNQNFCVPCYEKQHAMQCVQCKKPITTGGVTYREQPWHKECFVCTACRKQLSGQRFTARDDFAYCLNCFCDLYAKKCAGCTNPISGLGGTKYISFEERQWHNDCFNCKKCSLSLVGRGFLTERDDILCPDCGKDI
B9: Sorting nexin-15 (Homo sapiens), Q9NRS6 (parent)
chain: MSRQAKDDFLRHYTVSDPRTHPKGYTEYKVTAQFISKKDPEDVKEVVVWKRYSDFRKLHGDLAYTHRNLFRRLEEFPAFPRAQVFGRFEASVIEERRKGAEDLLRFTVHIPALNNSPQLKEFFRGGEVTRPLEVSRDLHILPPPLIPTPPPDDPRLSQLLPAERRGLEELEVPVDPPPSSPAQEALDLLFNCESTEEASGSPARGPLTEAELALFDPFSKEEGAAPSPTHVAELATMEVESARLDQEPWEPGGQEEEEDGEGGPTPAYLSQATELITQALRDEKAGAYAAALQGYRDGVHVLLQGVPSDPLPARQEGVKKKAAEYLKRAEEILRLHLSQLPP
B10: "N-acyl-aromatic-L-amino acid amidohydrolase (carboxylate-forming)" (Homo sapiens), Q96HD9 (parent)
chain: MCSLPVPREPLRRVAVTGGTHGNEMSGVYLARHWLHAPAELQRASFSAVPVLANPAATSGCRRYVDHDLNRTFTSSFLNSRPTPDDPYEVTRARELNQLLGPKASGQAFDFVLDLHNTTANMGTCLIAKSSHEVFAMHLCRHLQLQYPELSCQVFLYQRSGEESYNLDSVAKNGLGLELGPQPQGVLRADIFSRMRTLVATVLDFIELFNQGTAFPAFEMEAYRPVGVVDFPRTEAGHLAGTVHPQLQDRDFQPLQPGAPIFQMFSGEDLLYEGESTVYPVFINEAAYYEKGVAFVQTEKFTFTVPAMPALTPAPSPAS
B11: Notch homolog 2 N-terminal-like protein A (Homo sapiens), Q7Z3S9 (parent)
chain: B6 chain
partner: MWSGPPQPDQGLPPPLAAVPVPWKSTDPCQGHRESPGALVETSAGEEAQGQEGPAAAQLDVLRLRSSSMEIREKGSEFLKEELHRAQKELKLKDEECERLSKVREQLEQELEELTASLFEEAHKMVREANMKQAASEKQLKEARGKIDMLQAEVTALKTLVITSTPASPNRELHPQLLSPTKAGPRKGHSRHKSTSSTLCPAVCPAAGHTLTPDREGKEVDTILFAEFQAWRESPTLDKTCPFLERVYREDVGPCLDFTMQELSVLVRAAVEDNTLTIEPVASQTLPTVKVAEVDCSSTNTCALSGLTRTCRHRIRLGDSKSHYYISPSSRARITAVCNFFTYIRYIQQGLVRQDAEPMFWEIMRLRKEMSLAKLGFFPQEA

Variants of: B1
Details: with prs6a_human PSMC3, P17980
Chain of prs6a_human PSMC3, P17980 (P17980 whole entry): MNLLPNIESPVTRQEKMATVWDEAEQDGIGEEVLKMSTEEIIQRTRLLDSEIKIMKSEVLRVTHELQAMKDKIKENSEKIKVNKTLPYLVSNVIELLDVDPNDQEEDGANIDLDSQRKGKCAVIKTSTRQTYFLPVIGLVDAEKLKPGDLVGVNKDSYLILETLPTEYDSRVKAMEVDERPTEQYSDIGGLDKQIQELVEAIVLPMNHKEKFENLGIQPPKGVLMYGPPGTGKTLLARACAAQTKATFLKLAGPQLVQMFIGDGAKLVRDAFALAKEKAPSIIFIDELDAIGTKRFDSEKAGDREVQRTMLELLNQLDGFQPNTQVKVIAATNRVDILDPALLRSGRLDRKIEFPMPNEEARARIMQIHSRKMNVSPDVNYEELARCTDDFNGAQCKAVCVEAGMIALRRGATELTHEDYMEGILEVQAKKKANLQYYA

Row | effect of a mutation on the interaction | Variant
1 | with no effect | R110W

Variants of: B1
Details: with prs10_human PSMC6, P62333
Chain of prs10_human PSMC6, P62333 (P62333 whole entry): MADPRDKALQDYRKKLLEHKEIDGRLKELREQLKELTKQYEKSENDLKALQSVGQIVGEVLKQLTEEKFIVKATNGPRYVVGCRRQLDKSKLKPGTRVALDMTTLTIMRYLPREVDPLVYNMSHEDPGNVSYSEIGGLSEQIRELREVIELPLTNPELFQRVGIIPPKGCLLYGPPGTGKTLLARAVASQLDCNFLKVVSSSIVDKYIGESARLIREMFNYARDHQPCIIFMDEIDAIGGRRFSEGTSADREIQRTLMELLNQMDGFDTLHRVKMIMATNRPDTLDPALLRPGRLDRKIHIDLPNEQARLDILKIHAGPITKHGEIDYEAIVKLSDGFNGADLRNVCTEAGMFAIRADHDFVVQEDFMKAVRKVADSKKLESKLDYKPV

Row | effect of a mutation on the interaction | Variant
2 | with no effect | R110W

Variants of: B1
Details: with cc136_human CCDC136, Q96JN2
Chain of cc136_human CCDC136, Q96JN2 (Q96JN2 whole entry): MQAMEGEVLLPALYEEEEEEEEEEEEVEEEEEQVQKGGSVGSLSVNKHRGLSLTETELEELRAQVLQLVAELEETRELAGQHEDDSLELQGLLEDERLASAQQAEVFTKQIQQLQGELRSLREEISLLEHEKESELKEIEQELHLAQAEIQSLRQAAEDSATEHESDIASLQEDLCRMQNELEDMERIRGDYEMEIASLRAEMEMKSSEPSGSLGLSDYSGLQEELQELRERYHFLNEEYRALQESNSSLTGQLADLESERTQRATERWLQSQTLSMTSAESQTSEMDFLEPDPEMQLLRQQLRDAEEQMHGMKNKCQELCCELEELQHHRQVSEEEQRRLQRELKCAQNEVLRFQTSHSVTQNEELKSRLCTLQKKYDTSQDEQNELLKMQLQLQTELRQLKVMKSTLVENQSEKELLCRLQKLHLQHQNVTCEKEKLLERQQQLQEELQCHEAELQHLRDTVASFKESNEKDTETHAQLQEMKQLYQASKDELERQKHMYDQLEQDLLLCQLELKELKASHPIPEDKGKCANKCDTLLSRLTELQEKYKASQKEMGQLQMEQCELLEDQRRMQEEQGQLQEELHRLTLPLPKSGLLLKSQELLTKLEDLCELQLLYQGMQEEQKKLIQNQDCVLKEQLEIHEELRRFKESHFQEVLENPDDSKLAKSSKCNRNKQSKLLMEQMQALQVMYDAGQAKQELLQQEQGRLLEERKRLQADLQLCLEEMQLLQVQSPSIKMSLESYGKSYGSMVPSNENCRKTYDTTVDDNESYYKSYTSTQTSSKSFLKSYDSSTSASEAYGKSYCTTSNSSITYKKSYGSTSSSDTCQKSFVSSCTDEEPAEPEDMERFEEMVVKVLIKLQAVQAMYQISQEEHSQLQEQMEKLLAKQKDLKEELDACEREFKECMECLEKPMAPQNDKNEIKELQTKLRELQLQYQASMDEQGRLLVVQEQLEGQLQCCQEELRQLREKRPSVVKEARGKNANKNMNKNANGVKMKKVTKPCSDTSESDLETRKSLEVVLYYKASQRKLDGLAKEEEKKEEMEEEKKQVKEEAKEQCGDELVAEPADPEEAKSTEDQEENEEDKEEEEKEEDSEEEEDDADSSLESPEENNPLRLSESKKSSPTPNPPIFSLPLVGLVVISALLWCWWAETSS

Row | effect of a mutation on the interaction | Variant
3 | with no effect | R110W

Variants of: B1
Details: with spn90_human NCKIPSD

Row | effect of a mutation on the interaction | Variant
4 | with no effect | R110W

Variants of: B2
Details: with cof2_human CFL2, Q9Y281

Row | effect of a mutation on the interaction | Variant
5 | with no effect | G139E

Variants of: B2
Details: with actb_human ACTB

Row | effect of a mutation on the interaction | Variant
6 | with no effect | G139E

Variants of: B2
Details: with actg_human ACTG1, P63261

Row | effect of a mutation on the interaction | Variant
7 | with no effect | G139E

Variants of: B3
Details: with kctd6_human KCTD6, Q8NC69

Row | effect of a mutation on the interaction | Variant
8 | disrupting interaction strength | R483Q
9 | with no effect | S703F

Continued, variant first:

Row | Variant | effect of a mutation on the interaction
10 | I646T | disrupting interaction strength
11 | L715S | disrupting interaction strength

Variants of: B4
Details: with rbtn1_human LMO1, P25800

Row | effect of a mutation on the interaction | Variant
12 | with no effect | H45R
13 | with no effect | Q40R

Variants of: B5
Details: with fam9b_human FAM9B

Row | effect of a mutation on the interaction | Variant
14 | with no effect | M102V

Variants of: B6
Details: with il2rg_human IL2RG

Row | effect of a mutation on the interaction | Variant
15 | with no effect | A115T
16 | with no effect | R74Q

Variants of: B7
Details: with tchp_human TCHP

Row | effect of a mutation on the interaction | Variant
17 | with no effect | I10V

Variants of: B8
Details: with fhl2_human FHL2, Q14192

Row | effect of a mutation on the interaction | Variant
18 | with no effect | P348S

Variants of: B9
Details: with reep6_human REEP6, Q96HR9
Chain of reep6_human REEP6, Q96HR9 (Q96HR9 whole entry): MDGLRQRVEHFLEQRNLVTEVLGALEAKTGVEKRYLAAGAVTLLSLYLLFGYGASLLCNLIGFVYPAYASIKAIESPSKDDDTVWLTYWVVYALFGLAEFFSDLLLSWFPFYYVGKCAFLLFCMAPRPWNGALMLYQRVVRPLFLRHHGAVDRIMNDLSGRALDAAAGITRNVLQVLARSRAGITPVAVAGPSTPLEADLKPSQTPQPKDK

Row | effect of a mutation on the interaction | Variant
19 | with no effect | R334C
20 | with no effect | R314C

Variants of: B9
Details: with ar6p1_human ARL6IP1, Q15041
Chain of ar6p1_human ARL6IP1, Q15041 (Q15041 whole entry): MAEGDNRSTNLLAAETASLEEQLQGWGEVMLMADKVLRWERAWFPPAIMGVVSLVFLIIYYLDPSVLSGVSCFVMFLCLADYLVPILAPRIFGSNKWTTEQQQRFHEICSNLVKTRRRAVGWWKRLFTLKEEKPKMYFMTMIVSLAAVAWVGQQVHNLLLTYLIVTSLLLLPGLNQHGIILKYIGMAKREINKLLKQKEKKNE

Row | effect of a mutation on the interaction | Variant
21 | with no effect | R334C
22 | with no effect | R314C

Variants of: B10
Details: with gors2_human GORASP2, Q9H8Y8

Row | effect of a mutation on the interaction | Variant
23 | with no effect | R8Q

Variants of: B11
Details: with RAB3IL1, Q8TBN0

Row | effect of a mutation on the interaction | Variant
24 | with no effect | R74Q
